Data reported in paper PMC4882459 (The Journal of Biological Chemistry, 2016).

Biological target: T1, C1q (human, UniProt P02745 23-245; P02746 28-253; P02747 29-245)
T1 construct: also called human C1q; purified C1q; source: bought: Calbiochem (purified); also endogenous, human serum; copies: + +
Test: ELISA; C1q binding assay: ES-62, PCh-BSA or CWPS coated to give equivalent CRP binding; CRP 0.4 ug/ml added, then purified C1q at 0, 0.2, 2.0 and 5.0 ug/ml, 1 h at room temperature; detected with anti-C1q
Details: both partners purified

T1 sequence (P02745 23-245, chain 1 of 3): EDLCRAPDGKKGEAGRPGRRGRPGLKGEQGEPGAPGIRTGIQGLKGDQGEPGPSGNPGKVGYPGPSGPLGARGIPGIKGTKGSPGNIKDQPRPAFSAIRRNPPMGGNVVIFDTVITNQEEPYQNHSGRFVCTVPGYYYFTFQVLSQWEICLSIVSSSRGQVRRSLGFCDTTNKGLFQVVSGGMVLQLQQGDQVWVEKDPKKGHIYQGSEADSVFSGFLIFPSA
T1 sequence (P02746 28-253, chain 2 of 3): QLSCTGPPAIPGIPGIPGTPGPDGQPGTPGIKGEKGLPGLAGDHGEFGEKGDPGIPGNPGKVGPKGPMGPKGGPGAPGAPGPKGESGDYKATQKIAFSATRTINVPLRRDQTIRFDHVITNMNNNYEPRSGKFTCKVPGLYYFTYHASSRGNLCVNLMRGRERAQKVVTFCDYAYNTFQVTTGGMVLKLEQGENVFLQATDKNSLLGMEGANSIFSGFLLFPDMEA
T1 sequence (P02747 29-245, chain 3 of 3): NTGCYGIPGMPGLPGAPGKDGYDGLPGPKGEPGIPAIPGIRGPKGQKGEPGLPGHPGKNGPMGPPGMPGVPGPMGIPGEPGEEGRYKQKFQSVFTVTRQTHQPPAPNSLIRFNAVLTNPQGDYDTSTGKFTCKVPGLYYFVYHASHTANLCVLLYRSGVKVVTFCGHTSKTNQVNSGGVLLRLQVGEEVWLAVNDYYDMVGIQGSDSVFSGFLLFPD

B1: C-reactive protein (native, human) (natural protein)
chain: QTDMSRKAFVFPKESDTSYVSLKAPLTKPLKAFTVCLHFYTELSSTRGYSIFSYATKRQDNEILIFWSKDIGYSFTVGGSEILFEVPEVTVAPVHICTSWESASGIVEFWVDGKPRVRKSLKKGYTVGAEASIILGQEQDSFGGNFEGSQSLVGDIGNVNMWDFVLSPDEINTIYLGGPFSPNVLNWRALKYEVQGEVFTKPQLWP
notes: C-reactive protein, human, native pentamer of subunits of ~25 kD; Used as purified protein, as purified protein added to diluted serum, and as the endogenous protein of normal human serum; also called CRP; native CRP; source: also endogenous, normal human serum
binding result: binds
